The values below come from patent US20250034222A1 (MONASH UNIVERSITY, published 2025).

The series concerns the molecule itself. Briefly: SEC.

B1: Wild-type IL-38 (residues 3-152), untagged after TEV cleavage of the N-terminal His10 tag (ligand)
chain: SLPMARYYIIKYADQKALYTRDGQLLVGDPVADNCCAEKICILPNRGLARTKVPIFLGIQGGSRCLACVETEEGPSLQLEDVNIEELYKGGEEATRFTFFQSSSGSAFRLEAAAWPGWFLCGPAEPQQPVQLTKESEPSARTKFYFEQSW
notes: Uncut protein was removed for the Peak A pool; also called IL-38 (WT); WT (D51A) IL-38
As to B1, the binding result is on record as “binds”.
